Data published in PMC2984483.

What was measured:
Details in all cases: EMSA: 0.1 ng 32P probe, 15 ul, 30 min at 25 C (stated for GadE/RcsBD56E), 6% native PAGE; H-NS: 100-200 ng PCR fragment plus pBR322 digest, 15 min room …
[1] = target: T1, Strep-AdiY (Escherichia coli) (UniProt P33234); experiment: EMSA
T1 sequence: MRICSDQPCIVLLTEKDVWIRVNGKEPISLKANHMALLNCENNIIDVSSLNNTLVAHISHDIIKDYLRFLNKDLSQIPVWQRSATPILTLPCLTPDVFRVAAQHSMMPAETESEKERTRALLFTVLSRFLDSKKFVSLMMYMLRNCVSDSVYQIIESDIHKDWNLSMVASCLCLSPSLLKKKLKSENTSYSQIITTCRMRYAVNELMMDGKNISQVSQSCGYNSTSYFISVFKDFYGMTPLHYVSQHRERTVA

[2] = target: T2, H-NS-His6 (Escherichia coli) (UniProt P0ACF8); experiment: competitive EMSA
T2 sequence: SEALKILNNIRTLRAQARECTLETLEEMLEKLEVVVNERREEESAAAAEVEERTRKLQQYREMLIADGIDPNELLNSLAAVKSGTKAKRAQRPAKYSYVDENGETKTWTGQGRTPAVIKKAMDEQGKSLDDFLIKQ

[3] = target: T3, HdfR-His6 (Escherichia coli) (UniProt P0A8R9); experiment: EMSA
T3 sequence: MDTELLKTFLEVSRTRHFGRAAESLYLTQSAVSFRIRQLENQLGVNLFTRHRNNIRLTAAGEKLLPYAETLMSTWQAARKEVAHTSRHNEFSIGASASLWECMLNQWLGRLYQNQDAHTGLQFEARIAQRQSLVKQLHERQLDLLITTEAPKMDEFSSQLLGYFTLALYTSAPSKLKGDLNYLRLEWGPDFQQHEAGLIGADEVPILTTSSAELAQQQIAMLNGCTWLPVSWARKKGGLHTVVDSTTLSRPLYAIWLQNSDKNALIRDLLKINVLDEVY

[4] = target: T4, His6-RcsBD56E;GadE-His6 D56E (Escherichia coli;Escherichia coli) (UniProt P0DMC7+P63204); experiment: EMSA
T4 sequence 1: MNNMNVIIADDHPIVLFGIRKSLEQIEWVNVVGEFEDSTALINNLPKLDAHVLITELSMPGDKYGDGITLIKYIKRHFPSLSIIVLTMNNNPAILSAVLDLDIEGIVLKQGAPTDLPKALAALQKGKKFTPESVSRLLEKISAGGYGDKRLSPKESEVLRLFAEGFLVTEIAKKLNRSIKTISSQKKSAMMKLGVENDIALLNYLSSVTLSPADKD
T4 sequence 2: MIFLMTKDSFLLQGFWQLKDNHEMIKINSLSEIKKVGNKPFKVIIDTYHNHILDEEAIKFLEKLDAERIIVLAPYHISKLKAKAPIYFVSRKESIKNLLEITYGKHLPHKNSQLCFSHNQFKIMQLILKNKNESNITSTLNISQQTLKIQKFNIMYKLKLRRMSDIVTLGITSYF

ATGCCAAAAACGCGTCTAAGAATGCAGTCGATTTAATAAAAATTTCCTAATTGCAGTATCTGATGCATCTGTAACTCATTGTATTGAAATAAAAATATCTGATTTTGATATTTTCCATCAACATGACATATACAGAAAACCAGGTTATAACCTCAGTGTCG (double strand) [hdeABD promoter]
binding [1]: no binding

TGGCCTTAGGCCTTTTGAGTATGGCAACGTTTTCATAAAAATTGCTGCAAACAAAAATGTCATACTTTTTGCGCGGCCCCACCCCGCGCTTTTTTTTGCCTGTTATTTATCCTGTAAAAAAATATGTACATGAGAAATTACTATAAAAATTTGTACTATTAGTAAAAC (double strand) [adiY promoter]
binding [2]: binds

GGTCGCTCCTTGCCTGAAGTCATCCTTCAATACGTTAAGGGCGAAATCATACCGTGGGGCAATGAGTTATTACGGGCGTTTATTGCGAAGGGAGGGTGACGAAATGCACAGAAAACAAAA (double strand) [aslB promoter]
binding [1]: no binding
binding [3]: no binding
binding [4]: binds

TTATATATCCATGTTGGCGATAATCCCTTTGTATGTACTGTGCATCATCGCTATTACAAATCCTAATAATTCATTTCCACACAGGATAAGTAGATGAAGAAAAAAATTGAATC (double strand) [ydeP promoter]
binding [2]: binds

CGCATAATTTCCAGCAATCTTTGTTTATTTGCAATTATTTTTGTTGGGCTTTTTGTAGGTTATTTGTACAGCAAAATGGCGCTTGTACATCTATTTCCCCCAATGCAGGATGATAAATATCACGGGAGAATAGAGAATCATCAATCAGGTAAGAGTCTGGAATTTCACACTGTACCCTTTATACTGCCCT (double strand) [rcsD promoter]
binding [2]: binds

TCGTTATGCAGCGATATTTTTTGCTGTTCATGATAAATATCGAATGAACGACGAATGAGGATCACCGAGCAGACATGAGTCATGATTATCCCTTATATTTCATACTGCGATTATTTCAATTTCAGTATACTAATGAAATGATGCCAGACTGTTTCTTAGCGCAAAAACTGCCAGATTTGGTAGGACCAAAATTTATCCACAAAGTAGTTTTGCATAACAGTTAATTGATAATAAGTAAATGCAGCACGAATATATTTTCGCACAGCGTATAGCTTA (double strand) [gadW promoter]
binding [2]: binds

GAATAAAAATAGATTTTATGTACTTTTAAAACAATGCACTATATTATGGGGTGATGGATATTCATGTCACGCCCCAAAATTAACTGAGTTCACCTAAACAGAAAGGATATAAACATCAGACAGGTTTACGTTACTATCAGGCATATCACCTCAGAATCAGATGAAAACTATAAAGAAATATCTATTATGGTTTTAA (double strand) [slp-dctR promoter]
binding [2]: binds
binding [1]: no binding

AATGATACTTGTCTGAAAAACAGATTTACGACGATATAAAATAATAATACTTATATGTTCGCTGATTTTAAGCACCGAGACTATCCGGTCTTTTACCAAATAATGAAGAATAATCCCTCCCTGGAAGATAATTGTAAAAAACAACAGCATAAGAATTAATCTTAGGATAAATTTTTATTTATCATGGCCTTTTGAACGCTGAAAAGTAGCGCTCTGCAAAGTAAACCCCGCTATAGTTATGCTATGCATTTGTCTTTAATGATATCTCGTCATTATATTAACAGGATGAAATTATCATTA (double strand) [yhiM promoter]
binding [2]: binds
binding [4]: binds

ATCCTGCACGCTCCTAATTCTTTGACCGAGCTAGTTATGGCGCGGAGTATTAGTTACGCTTGACAGAGTGTAAAACAAAACATTTAAATCATAACGACAAATAATTTTGCGGAGAGCACTGTGGATACGGAATTGTTAAAAACTTTCCTGGAAGTTAGCCGAACGCGTCACTTTGGTCGAGCGGCTGAATCGCTCTATCTGACCCAGTCAGCAGTGAGCTTTCGAATCAGACAACTGGAAAATCAACTGGGTGTGAACCTT (double strand) [hdfR promoter]
binding [2]: binds

TTGCTCATGCAAAGACTAACAATCCATTAAAATAGTAAGTGCTCCGGACAATTTTCCATGGATTATTTTCTGAACATTTTTCTTTGGCAAAGATGATGAATTTTGATGGTAAGGAATATTACTTCTGGTTCTCAGTAAAATCCTTTCGTAATACTATGTAATCAAGAAGTTTATGGCTGGTAAAAATAACGTCTTGCATTCACCAATAATATGTAAATAAACCCATCTATAGATGGTAAAAATAGGTTGTGGCAATTATCATTGCATCATTCCCTTTTCGAATG (double strand) [cadC promoter]
binding [2]: binds
